Laboratory results taken from article PMC7135905 (Biochemical Journal, 2020).
Read-outs that look alike come from different tables or passages of the source.

Key:
Test in all cases: native MS
native MS [1] = target: the molecule itself
native MS [2] = target: the molecule itself; remark: listed apart in the source
native MS [3] = target: the molecule itself; remark: listed apart in the source
native MS [4] = target: the molecule itself; remark: listed apart in the source
native MS [5] = target: the molecule itself; remark: listed apart in the source
native MS [6] = target: the molecule itself; remark: listed apart in the source

B1: CtRocCOR (RocCOR construct of the Roco protein from Chlorobium tepidum, a.a. 412-946) (domain or fragment)
chain: DNPLESPPPEIVKQGKEAVRQYFQSIEEARSKGEALVHLQEIKVHLIGDGMAGKTSLLKQLIGETFDPKESQTHGLNVVTKQAPNIKGLENDDELKECLFHFWDFGGQEIMHASHQFFMTRSSVYMLLLDSRTDSNKHYWLRHIEKYGGKSPVIVVMNKIDENPSYNIEQKKINERFPAIENRFHRISCKNGDGVESIAKSLKSAVLHPDSIYGTPLAPSWIKVKEKLVEATTAQRYLNRTEVEKICNDSGITDPGERKTLLGYLNNLGIVLYFEALDLSEIYVLDPHWVTIGVYRIINSSKTKNGHLNTSALGYILNEEQIRCDEYDPAKNNKFTYTLLEQRYLLDIMKQFELCYDEGKGLFIIPSNLPTQIDNEPEITEGEPLRFIMKYDYLPSTIIPRLMIAMQHQILDRMQWRYGMVLKSQDHEGALAKVVAETKDSTITIAIQGEPRCKREYLSIIWYEIKKINANFTNLDVKEFIPLPGHPDELVEYKELLGLEKMGRDEYVSGKLEKVFSVSKMLDSVISKEERNKER
- percent dimer (dimer/monomer ratio) (native MS [1]): ~87%
- percent dimer (dimer/monomer ratio) (native MS [2]): ~38%
- percent dimer (dimer/monomer ratio) (native MS [3]): ~26%
- percent dimer (dimer/monomer ratio) (native MS [4]): ~90%
- percent dimer (dimer/monomer ratio) (native MS [5]): ~20%
- percent dimer (dimer/monomer ratio) (native MS [6]): ~97%
- stoichiometry N (native MS [6]): 2

B2: CtRocCOR L487A mutant (domain or fragment)
chain: DNPLESPPPEIVKQGKEAVRQYFQSIEEARSKGEALVHLQEIKVHLIGDGMAGKTSLLKQLIGETFDPKESQTHGANVVTKQAPNIKGLENDDELKECLFHFWDFGGQEIMHASHQFFMTRSSVYMLLLDSRTDSNKHYWLRHIEKYGGKSPVIVVMNKIDENPSYNIEQKKINERFPAIENRFHRISCKNGDGVESIAKSLKSAVLHPDSIYGTPLAPSWIKVKEKLVEATTAQRYLNRTEVEKICNDSGITDPGERKTLLGYLNNLGIVLYFEALDLSEIYVLDPHWVTIGVYRIINSSKTKNGHLNTSALGYILNEEQIRCDEYDPAKNNKFTYTLLEQRYLLDIMKQFELCYDEGKGLFIIPSNLPTQIDNEPEITEGEPLRFIMKYDYLPSTIIPRLMIAMQHQILDRMQWRYGMVLKSQDHEGALAKVVAETKDSTITIAIQGEPRCKREYLSIIWYEIKKINANFTNLDVKEFIPLPGHPDELVEYKELLGLEKMGRDEYVSGKLEKVFSVSKMLDSVISKEERNKER
- percent dimer (dimer/monomer ratio) (native MS [2]): ~85%
- percent dimer (dimer/monomer ratio) (native MS [3]): ~96%
- percent dimer (dimer/monomer ratio) (native MS [4]): ~100%
- percent dimer (dimer/monomer ratio) (native MS [5]): ~11%
